Measured values from publication PMC9482650, “Quantitative fragmentomics allow affinity mapping of interactomes” (Nature Communications, 2022).

What was measured:
Assay in all cases: holdup assay
Parameters in all cases: key: below the threshold = too weak to quantify, mostly under pKd 3.1 to 4
SCRIB_3, Q14160 = target: SCRIB_3, Q14160
GRIP2_7, Q9C0E4 = target: GRIP2_7, Q9C0E4
FRMPD2_1, Q68DX3 = target: FRMPD2_1, Q68DX3
PTPN13_1, Q12923 = target: T1, PTPN13_1, Q12923
T1 sequence (Q12923 1088-1188, limits assumed, looked up): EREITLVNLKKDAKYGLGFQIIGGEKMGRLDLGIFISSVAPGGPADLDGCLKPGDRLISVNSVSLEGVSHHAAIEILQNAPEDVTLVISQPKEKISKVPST

NOS1, P29475 = target: NOS1, P29475
NOS1, P29475, sequence (P29475 9-101): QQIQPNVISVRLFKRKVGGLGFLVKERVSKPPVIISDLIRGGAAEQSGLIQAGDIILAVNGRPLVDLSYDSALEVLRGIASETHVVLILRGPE

NHERF3_4, Q5T2W1 = target: T2, NHERF3_4, Q5T2W1
T2 sequence (Q5T2W1 373-468, limits assumed, looked up): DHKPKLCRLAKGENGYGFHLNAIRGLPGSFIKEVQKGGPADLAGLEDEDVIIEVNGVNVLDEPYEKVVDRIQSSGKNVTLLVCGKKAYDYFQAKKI

MAGI2_6, Q86UL8 = target: MAGI2_6, Q86UL8
MAGI2_6, Q86UL8, sequence (Q86UL8 1141-1229): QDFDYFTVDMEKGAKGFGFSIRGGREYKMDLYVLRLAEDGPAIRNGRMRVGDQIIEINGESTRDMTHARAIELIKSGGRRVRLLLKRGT

AHNAK1, Q09666 = target: AHNAK1, Q09666
AHNAK1, Q09666, sequence (Q09666 4-100): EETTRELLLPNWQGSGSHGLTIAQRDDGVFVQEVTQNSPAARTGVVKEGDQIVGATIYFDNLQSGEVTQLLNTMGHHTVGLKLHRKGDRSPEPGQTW

DLG4_2, P78352 = target: DLG4_2, P78352
DLG4_2, P78352, sequence (P78352 155-259): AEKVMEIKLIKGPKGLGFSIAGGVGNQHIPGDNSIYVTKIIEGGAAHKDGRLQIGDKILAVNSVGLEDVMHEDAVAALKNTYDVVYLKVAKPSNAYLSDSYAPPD

GRIP1_4, Q9Y3R0 = target: T3, GRIP1_4, Q9Y3R0
T3 sequence (Q9Y3R0 467-571, limits assumed, looked up): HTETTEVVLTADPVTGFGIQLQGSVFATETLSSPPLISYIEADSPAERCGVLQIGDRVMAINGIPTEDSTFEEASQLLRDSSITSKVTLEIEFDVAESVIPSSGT

LIN7B, Q9HAP6 = target: T4, LIN7B, Q9HAP6
T4 sequence (Q9HAP6 88-185, limits assumed, looked up): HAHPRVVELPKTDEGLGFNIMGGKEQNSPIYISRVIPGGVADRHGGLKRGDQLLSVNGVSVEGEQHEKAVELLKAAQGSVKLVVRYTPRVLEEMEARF

MPDZ_12, O75970 = target: T5, MPDZ_12, O75970
T5 sequence (O75970 1857-1958, limits assumed, looked up): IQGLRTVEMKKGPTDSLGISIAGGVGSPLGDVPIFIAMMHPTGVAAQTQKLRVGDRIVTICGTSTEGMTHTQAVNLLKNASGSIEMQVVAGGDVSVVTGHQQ

NHERF4_2, Q86UT5 = target: NHERF4_2, Q86UT5
NHERF4_2, Q86UT5, sequence (Q86UT5 220-308): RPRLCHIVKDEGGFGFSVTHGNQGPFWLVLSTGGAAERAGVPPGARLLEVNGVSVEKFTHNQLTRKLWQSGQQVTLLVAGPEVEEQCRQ

LIMK2, P53671 = target: LIMK2, P53671
LIMK2, P53671, sequence (P53671 143-248): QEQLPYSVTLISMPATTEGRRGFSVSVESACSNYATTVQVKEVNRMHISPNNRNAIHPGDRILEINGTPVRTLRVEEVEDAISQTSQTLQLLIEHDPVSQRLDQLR

DLG1_2, Q12959 = target: DLG1_2, Q12959
DLG1_2, Q12959, sequence (Q12959 314-412): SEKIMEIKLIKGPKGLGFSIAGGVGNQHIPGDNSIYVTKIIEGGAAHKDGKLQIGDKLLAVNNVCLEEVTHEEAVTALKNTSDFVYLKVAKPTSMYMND

FRMPD2_2, Q68DX3 = target: FRMPD2_2, Q68DX3
FRMPD2_2, Q68DX3, sequence (Q68DX3 944-1038): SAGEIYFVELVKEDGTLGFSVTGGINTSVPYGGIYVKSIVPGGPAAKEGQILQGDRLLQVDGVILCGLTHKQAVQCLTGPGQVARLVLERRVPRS

SNTG2, Q9NY99 = target: T6, SNTG2, Q9NY99
T6 sequence (Q9NY99 68-166, limits assumed, looked up): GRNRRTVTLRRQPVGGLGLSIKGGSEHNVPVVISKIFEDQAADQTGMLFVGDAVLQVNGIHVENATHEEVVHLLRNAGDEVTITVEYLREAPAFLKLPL

LNX1_3, Q8TBB1 = target: LNX1_3, Q8TBB1
LNX1_3, Q8TBB1, sequence (Q8TBB1 500-596): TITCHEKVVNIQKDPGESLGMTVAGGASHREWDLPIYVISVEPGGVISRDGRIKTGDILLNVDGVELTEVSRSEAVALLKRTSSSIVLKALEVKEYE

FRMPD4, Q14CM0 = target: FRMPD4, Q14CM0
FRMPD4, Q14CM0, sequence (Q14CM0 67-160): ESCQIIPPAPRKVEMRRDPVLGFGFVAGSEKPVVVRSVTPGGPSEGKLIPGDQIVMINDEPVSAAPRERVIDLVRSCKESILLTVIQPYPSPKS

APBA1_2, Q02410 = target: T7, APBA1_2, Q02410
T7 sequence (Q02410 742-832, limits assumed, looked up): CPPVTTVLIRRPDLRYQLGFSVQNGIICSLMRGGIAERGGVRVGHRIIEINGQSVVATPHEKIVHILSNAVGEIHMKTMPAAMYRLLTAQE

DLG3_3, Q92796 = target: T8, DLG3_3, Q92796
T8 sequence (Q92796 374-475, limits assumed, looked up): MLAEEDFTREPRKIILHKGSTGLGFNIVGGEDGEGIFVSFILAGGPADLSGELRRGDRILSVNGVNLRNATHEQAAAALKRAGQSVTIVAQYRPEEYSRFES

MPP2, Q14168 = target: T9, MPP2, Q14168
T9 sequence (Q14168 180-250, limits assumed, looked up): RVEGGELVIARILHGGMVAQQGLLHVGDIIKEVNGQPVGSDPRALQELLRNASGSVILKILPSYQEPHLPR

MAGI2_4, Q86UL8 = target: MAGI2_4, Q86UL8
MAGI2_4, Q86UL8, sequence (Q86UL8 772-865): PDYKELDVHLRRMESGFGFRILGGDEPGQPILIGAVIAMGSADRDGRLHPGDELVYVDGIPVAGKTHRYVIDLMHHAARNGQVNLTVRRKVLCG

PDZD2_2, O15018 = target: T10, PDZD2_2, O15018
T10 sequence (O15018 329-429, limits assumed, looked up): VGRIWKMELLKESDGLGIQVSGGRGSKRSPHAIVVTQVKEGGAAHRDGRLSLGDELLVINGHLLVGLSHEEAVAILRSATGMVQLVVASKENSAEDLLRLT

GRID2IP_2, A4D2P6 = target: GRID2IP_2, A4D2P6
GRID2IP_2, A4D2P6, sequence (A4D2P6 272-370): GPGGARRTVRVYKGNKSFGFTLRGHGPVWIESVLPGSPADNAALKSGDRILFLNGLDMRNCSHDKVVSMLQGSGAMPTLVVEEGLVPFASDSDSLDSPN

PARD3_3, Q8TEW0 = target: PARD3_3, Q8TEW0
PARD3_3, Q8TEW0, sequence (Q8TEW0 582-685): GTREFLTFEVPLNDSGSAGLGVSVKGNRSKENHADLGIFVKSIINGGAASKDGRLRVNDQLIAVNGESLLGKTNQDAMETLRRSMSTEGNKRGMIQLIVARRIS

GRIP1_7, Q9Y3R0 = target: T11, GRIP1_7, Q9Y3R0
T11 sequence (Q9Y3R0 999-1096, limits assumed, looked up): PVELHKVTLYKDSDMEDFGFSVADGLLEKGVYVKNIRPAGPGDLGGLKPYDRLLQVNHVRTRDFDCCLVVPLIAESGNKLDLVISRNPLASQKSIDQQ

[1] = plain residues with an end cap or a label only (N-terminal biotin on a linker: ttds)
[2] = plain residues with an end cap or a label only (N-terminal biotin on a linker: ahx)

SCRIB_3, Q14160, sequence (Q14160 999-1103): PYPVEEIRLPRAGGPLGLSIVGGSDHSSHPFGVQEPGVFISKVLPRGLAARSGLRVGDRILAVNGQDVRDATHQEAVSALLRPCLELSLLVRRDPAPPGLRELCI
GRIP2_7, Q9C0E4, sequence (Q9C0E4 934-1023): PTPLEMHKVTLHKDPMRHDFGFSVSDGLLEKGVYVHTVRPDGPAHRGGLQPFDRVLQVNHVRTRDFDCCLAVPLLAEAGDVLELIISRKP
FRMPD2_1, Q68DX3, sequence (Q68DX3 770-861): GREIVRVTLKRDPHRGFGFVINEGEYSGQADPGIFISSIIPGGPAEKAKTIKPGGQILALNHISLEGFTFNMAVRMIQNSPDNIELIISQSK

For CLDTSRETDL [KCNA5, P22460], the pKd (SCRIB_3, Q14160; [1]) was 5.23, the pKd (GRIP2_7, Q9C0E4; [1]) was “below the threshold” and the pKd (FRMPD2_1, Q68DX3; [1]) was “below the threshold”. The pKd (PTPN13_1, Q12923; [1]) was “below the threshold”, the pKd (NOS1, P29475; [1]) was “below the threshold” and the pKd (NHERF3_4, Q5T2W1; [1]) was “below the threshold”. The pKd (MAGI2_6, Q86UL8; [1]) was 4.95, the pKd (AHNAK1, Q09666; [1]) was “below the threshold” and the pKd (DLG4_2, P78352; [1]) was 4.43. For the same binder, the pKd (GRIP1_4, Q9Y3R0; [1]) was “below the threshold”, the pKd (LIN7B, Q9HAP6; [1]) was “below the threshold” and the pKd (MPDZ_12, O75970; [1]) was “below the threshold”. For the same binder, the pKd (NHERF4_2, Q86UT5; [1]) was “below the threshold”, the pKd (LIMK2, P53671; [1]) was “below the threshold” and the pKd (DLG1_2, Q12959; [1]) was 4.79. For the same binder, the pKd (FRMPD2_2, Q68DX3; [1]) was “below the threshold”, the pKd (SNTG2, Q9NY99; [1]) was 4.45 and the pKd (LNX1_3, Q8TBB1; [1]) was “below the threshold”. The pKd (FRMPD4, Q14CM0; [1]) was 3.49, the pKd (APBA1_2, Q02410; [1]) was “below the threshold” and the pKd (DLG3_3, Q92796; [1]) was “below the threshold”. The pKd (MPP2, Q14168; [1]) was “below the threshold”, the pKd (MAGI2_4, Q86UL8; [1]) was “below the threshold” and the pKd (PDZD2_2, O15018; [1]) was 3.59. For the same binder, the pKd (GRID2IP_2, A4D2P6; [1]) was 3.7, the pKd (PARD3_3, Q8TEW0; [1]) was 3.48 and the pKd (GRIP1_7, Q9Y3R0; [1]) was “below the threshold”.

In the case of LCKSHAFSHV [PDLIM7, Q9NR12;Q9NR12-1], the pKd (SCRIB_3, Q14160; [2]) is reported as “below the threshold”, the pKd (GRIP2_7, Q9C0E4; [2]) is reported as “below the threshold” and the pKd (FRMPD2_1, Q68DX3; [2]) is reported as “below the threshold”. For the same binder, the pKd (PTPN13_1, Q12923; [2]) was “below the threshold”, the pKd (NHERF3_4, Q5T2W1; [2]) was “below the threshold” and the pKd (AHNAK1, Q09666; [2]) was “below the threshold”. The pKd (DLG4_2, P78352; [2]) was 3.49, the pKd (GRIP1_4, Q9Y3R0; [2]) was “below the threshold” and the pKd (LIN7B, Q9HAP6; [2]) was “below the threshold”. The pKd (MPDZ_12, O75970; [2]) was “below the threshold”, the pKd (NHERF4_2, Q86UT5; [2]) was “below the threshold” and the pKd (LIMK2, P53671; [2]) was “below the threshold”. The pKd (FRMPD2_2, Q68DX3; [2]) was “below the threshold”, the pKd (SNTG2, Q9NY99; [2]) was “below the threshold” and the pKd (LNX1_3, Q8TBB1; [2]) was “below the threshold”. For the same binder, the pKd (FRMPD4, Q14CM0; [2]) was “below the threshold”, the pKd (DLG3_3, Q92796; [2]) was “below the threshold” and the pKd (MPP2, Q14168; [2]) was “below the threshold”. The pKd (MAGI2_4, Q86UL8; [2]) was “below the threshold”, the pKd (PDZD2_2, O15018; [2]) was 4.54 and the pKd (PARD3_3, Q8TEW0; [2]) was “below the threshold”. The pKd (GRIP1_7, Q9Y3R0; [2]) was “below the threshold”.

With EDEDEQVSAV [RAPGEF2, Q9Y4G8] the pKd (SCRIB_3, Q14160; [2]) was “below the threshold”, the pKd (GRIP2_7, Q9C0E4; [2]) was “below the threshold” and the pKd (FRMPD2_1, Q68DX3; [2]) was “below the threshold”. For the same binder, the pKd (PTPN13_1, Q12923; [2]) was “below the threshold”, the pKd (NOS1, P29475; [2]) was 3.67 and the pKd (NHERF3_4, Q5T2W1; [2]) was “below the threshold”. The pKd (MAGI2_6, Q86UL8; [2]) was 4.57, the pKd (AHNAK1, Q09666; [2]) was “below the threshold” and the pKd (DLG4_2, P78352; [2]) was 3.95. For the same binder, the pKd (GRIP1_4, Q9Y3R0; [2]) was “below the threshold”, the pKd (LIN7B, Q9HAP6; [2]) was “below the threshold” and the pKd (MPDZ_12, O75970; [2]) was “below the threshold”. The pKd (NHERF4_2, Q86UT5; [2]) was “below the threshold”, the pKd (LIMK2, P53671; [2]) was “below the threshold” and the pKd (DLG1_2, Q12959; [2]) was 3.85. For the same binder, the pKd (FRMPD2_2, Q68DX3; [2]) was 5.03, the pKd (SNTG2, Q9NY99; [2]) was “below the threshold” and the pKd (LNX1_3, Q8TBB1; [2]) was “below the threshold”. The pKd (FRMPD4, Q14CM0; [2]) was “below the threshold”, the pKd (APBA1_2, Q02410; [2]) was 3.65 and the pKd (DLG3_3, Q92796; [2]) was “below the threshold”. The pKd (MPP2, Q14168; [2]) was “below the threshold”, the pKd (MAGI2_4, Q86UL8; [2]) was “below the threshold” and the pKd (PDZD2_2, O15018; [2]) was 5.72. The pKd (GRID2IP_2, A4D2P6; [2]) was 4.28, the pKd (PARD3_3, Q8TEW0; [2]) was 3.91 and the pKd (GRIP1_7, Q9Y3R0; [2]) was “below the threshold”.

KKNKDKEYYV [NRXN1, Q9ULB1] was tested, and the pKd (SCRIB_3, Q14160; [2]) was “below the threshold”, the pKd (GRIP2_7, Q9C0E4; [2]) was 4.55 and the pKd (FRMPD2_1, Q68DX3; [2]) was “below the threshold”. The pKd (PTPN13_1, Q12923; [2]) was “below the threshold”, the pKd (NOS1, P29475; [2]) was 3.57 and the pKd (NHERF3_4, Q5T2W1; [2]) was “below the threshold”. The pKd (MAGI2_6, Q86UL8; [2]) was “below the threshold”, the pKd (AHNAK1, Q09666; [2]) was “below the threshold” and the pKd (DLG4_2, P78352; [2]) was “below the threshold”. For the same binder, the pKd (GRIP1_4, Q9Y3R0; [2]) was “below the threshold”, the pKd (LIN7B, Q9HAP6; [2]) was “below the threshold” and the pKd (MPDZ_12, O75970; [2]) was “below the threshold”. The pKd (NHERF4_2, Q86UT5; [2]) was “below the threshold”, the pKd (LIMK2, P53671; [2]) was “below the threshold” and the pKd (DLG1_2, Q12959; [2]) was “below the threshold”. The pKd (FRMPD2_2, Q68DX3; [2]) was “below the threshold”, the pKd (SNTG2, Q9NY99; [2]) was “below the threshold” and the pKd (LNX1_3, Q8TBB1; [2]) was “below the threshold”. For the same binder, the pKd (FRMPD4, Q14CM0; [2]) was 3.58, the pKd (APBA1_2, Q02410; [2]) was 3.62 and the pKd (DLG3_3, Q92796; [2]) was “below the threshold”. The pKd (MPP2, Q14168; [2]) was 3.69, the pKd (MAGI2_4, Q86UL8; [2]) was “below the threshold” and the pKd (PDZD2_2, O15018; [2]) was 3.99. For the same binder, the pKd (GRID2IP_2, A4D2P6; [2]) was “below the threshold”, the pKd (PARD3_3, Q8TEW0; [2]) was 4.29 and the pKd (GRIP1_7, Q9Y3R0; [2]) was 4.09.
